Results: patent US20230331848A1 (BIOSION, published 2023)
Numbering of substitutions follows the chain as printed. One block for each binder: values may come before it.

Assays:
[1] = target: T1, human PD-1 expressed on GS-J2/PD-1 cells (Genscript) (human, UniProt Q15116 25-288); test: cell-based or functional assay
[2] = target: T1, human PD-1 expressed on GS-J2/PD-1 …; test: flow cytometry on GS-J2/PD-1 cells
Protocol: In specific, the 293F-mouse PD-1 cells and GS-J2/PD-1 cells were respectively harvested from cell culture flasks, washed twice and re-suspended in PBS containing 2% v/v Fetal Bovine Serum (FACS buffer). Then, 2×10⁵ cells per well were incubated in 96 well-plates with 100 μl of the anti-PD1 antibodies or controls at various concentrations for 40 minutes on ice. […] Following an incubation of 40 minutes at 4° C. in dark, cells were washed three times and re-suspended in FACS buffer. Fluorescence was measured using a Becton Dickinson FACS Canto II-HTS equipment and plotted against antibody concentrations. Data was analyzed using GraphPad Prism software and EC₅₀ values were reported.
For the cell-based binding FACS, R-Phycoerythrin AffiniPure Goat Anti-human IgG Fcγ fragment specific (Cat#:109-115-098, Jackson ImmunoResearch) was used for the humanized antibodies, with 1:1000 dilution in FACS buffer, 100 μl/well.

[3] = target: T2, recombinant human PD-1-his protein (Cat#:10377-H08H, Sino biological Inc.) (human, UniProt Q15116 25-167); test: SPR (Biacore), protocol of Example 2
T2 construct: Bought protein used as analyte in the Biacore tests; not shown: his tag

[4] = target: T3, recombinant mouse PD-1-his protein (Cat#:50124-M08H, Sino Biological Inc) (mouse, UniProt Q02242 25-167); test: SPR (Biacore), protocol of Example 2
T3 construct: Bought protein used in Biacore and indirect ELISA; not shown: his tag
T3 sequence (looked up): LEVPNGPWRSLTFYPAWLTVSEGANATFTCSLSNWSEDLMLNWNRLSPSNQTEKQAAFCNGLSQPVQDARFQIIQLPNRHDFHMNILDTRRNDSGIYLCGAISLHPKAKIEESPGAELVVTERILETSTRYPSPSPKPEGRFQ

[5] = target: T4, cynomolgus PD-1-his protein (Cat#:PD1-05223, Acro biosystems Inc.) (cynomolgus, UniProt B0LAJ3 25-170); test: indirect ELISA on coated cynomolgus PD-1-his
T4 construct: Bought protein used in Biacore and indirect ELISA; also called monkey PD-1; Cyno PD-1

[6] = target: T5, human PD-1-his protein prepared in-house (human, UniProt Q15116 25-167, biotin-labeled (sites not given)); test: capture ELISA, antibody captured, biotin human PD-1-his detected
T5 construct: also called biotin labeled human PD-1-his
Protocol: Briefly, 96-well micro plates were coated with 100 μl 2 μg/ml AffiniPure Goat Anti-Mouse IgG F(ab′)₂ fragment specific (Cat#:115-005-072, Jackson lmmunoResearch) or Goat-anti-human IgG (Cat#:109-005-097, Jackson ImmunoResearch, for the positive control and negative control) in PBS overnight at 4° C. Plates were washed once with wash buffer (PBST, PBS+0.05% Tween-20) and then blocked with 200 μl/well blocking buffer (5% w/v non-fatty milk in PBST) for 2 hours at 37° C. […] After a final wash, plates were incubated with 100 μl/well TMB (Cat#:TMB-S-002, Innoreagents) at room temperature.
For the capture ELISA, 96-well plates were coated with 100 μl 2 μg/ml AffiniPure Goat Anti-Human IgG, Fcγ fragment specific (Cat#:109-005-098, Jackson Immunoresearch) instead of AffiniPure goat-anti-mouse IgG F(ab′)₂ fragment specific.

[7] = target: T6, human PD-1-his protein (Cat#:PD1-H5221, Acro biosystems Inc.) (human, UniProt Q15116 25-167); test: BLI (Octet RED96), antibody captured on AHC sensor, human PD-1-his in solution, 1:1 fit
T6 construct: not shown: his tag
Protocol: (§1) Briefly, AHC biosensors (anti-human IgG Fe capture, from ForteBio) were presoaked with 10 mM glycine (pH 1.5) for 3 seconds, and then dipped in a well with running buffer (0.5% w/v BSA in PBST) for 3 seconds, the soaking and dipping steps were repeated for three times. […] A new baseline was run for 100 seconds in another well with running buffer. Then the sensors were dipped in a well with serially diluted human PD-1-his protein (Cat#:PD1-H5221, Acro biosystems Inc., starting at 100 nM with a two-fold serial dilution) in running buffer for 120 seconds, and then immersed in a baseline well for […]. Finally, sensors were presoaked with 10 mM glycine (pH 1.5) for 30 seconds, and then were dipped in a well with running buffer for 30 seconds. The association and dissociation curves were fit to a 1:1 Langmuir binding model using ForteBio Data Analysis 8.1 evaluation software.

[8] = target: T7, in house made human PD-1-Fc protein (human, biotin-labeled (sites not given)); test: competitive ELISA: biotin human PD-1-Fc + antibody on coated human PD-L1-Fc (competitor)
T7 construct: also called biotin-labeled human PD-1-Fc
Protocol: Briefly, 100 μl human PD-L1-Fc protein (prepared in-house with SEQ ID NO: 28) at 2 μg/mL in carbonate/bicarbonate buffer (pH 9.6) was coated on 96-well micro plates overnight at 4° C., Plates were washed with wash buffer (PBS+0.05% w/v Tween-20, PBST), and blocked with 5% w/v non-fatty milk in PBST for 2 hours at 37° C. […] After incubation at 37° C. for 40 minutes, plates were washed using wash buffer. […] Plates were washed again using wash buffer. Finally, TMB was added and the reaction was stopped using 1M H₂SO₄. The absorbance was read on a microplate reader using dual wavelength mode with 450 nm for TMB and 630 nm as the reference wavelength, then the OD (450-630) values were plotted against antibody concentrations. Data was analyzed using Graphpad Prism software and IC₅₀ values were reported.

[9] = target: T5, human PD-1-his protein prepared in-house; test: competitive ELISA: biotin human PD-1-his + antibody on coated Pembrolizumab (competitor)
Protocol: ELISA plates were washed once with wash buffer (PBST, PBS+0.05% Tween-20) and then blocked with 200 μl/well blocking buffer (5% w/v non-fatty milk in PBST) for 2 hours at 37° C. […] After incubation at 37° C. for 40 minutes, plates were washed using wash buffer, added and incubated with 100 μl/well Peroxidase Streptavidin for 40 minutes at 37° C. Plates were washed again using wash buffer. Finally, TMB was added and the reaction was stopped using 1M H₂SO₄. The absorbance was read on a microplate reader using dual wavelength mode with 450 nm for TMB and 630 nm as the reference wavelength, and the OD (450-630) values were plotted against antibody concentrations. Data was analyzed using Graphpad Prism software and IC₅₀ values were reported.

[10] = target: T6, human PD-1-his protein (Cat#:PD1-H5221, …); test: BLI (Octet RED96), antibody captured on AHC sensor, human PD-1-his in solution, 1:1 fit (second run)
Protocol: as §1

[11] = target: T7, in house made human PD-1-Fc protein; test: blocking FACS: biotin human PD-1-Fc + antibody on GS-C2/PD-L1 cells (competitor: cell-surface human PD-L1)
Protocol: GS-C2/PDL1 cells were harvested from cell culture flasks at the log phase, washed twice and re-suspended in PBS containing 2% v/v Fetal Bovine Serum (FACS buffer). GS-C2/PD-L1 cells, 0.6×10⁵ cells per welt, were incubated in 96 well-plates with 100 the antibody/PD1-Fc mixture for 40 minutes at 4° C. Cells were washed twice with FACS buffer, added with 100 R-Phycoerythrin Streptavidin (1:500 dilution in FACS buffer, Cat#:016-110-084, Jackson Immunoresearch), and incubated for 40 minutes at 4° C. in dark. Cells were washed twice and re-suspended in FACS buffer. Fluorescence was measured using a Becton Dickinson FACS Canto II-HTS equipment. Data was analyzed using Graphpad Prism software and IC₅₀ values were reported.

[12] = target: T6, human PD-1-his protein (Cat#:PD1-H5221, …); test: BLI (Octet RED96), supernatant antibody captured on AHC sensor, human PD-1-his in solution, 1:1 fit
Protocol: as §1

B2: humanized antibody huE1A9C8A7-V5 (antibody, human IgG4 S228P, kappa)
heavy: not shown
light: DIVMTQTPLSLPVTPGEPASISCRSSQSIVHSNGNTYLEWYLQKPGQSPQLLIYKVSNRFSGVPDRFSGSGSGTDFTLKISRVEAEDVGVYYCFQGSHVPYTFGGGTKVEIKRTVAAPSVFIFPPSDEQLKSGTASVVCLLNNFYPREAKVQWKVDNALQSGNSQESVTEQDSKDSTYSLSSTLTLSKADYEKHKVYACEVTHQGLSSPVTKSFNRGEC
notes: Human IgG4/kappa
Cell-based functional assay (EC50, nM) [1]: 9.3 nM
EC50 [2]: 0.66 nM
EC50 [5]: 0.9 nM
EC50 [6]: 0.21 nM
IC50 [8]: 0.35 nM
IC50 [9]: 0.54 nM
Kd [12]: 1.01 nM
koff [12]: 0.000213 s⁻¹
kon [12]: 211000 M⁻¹ s⁻¹
IC50 [11]: 0.54 nM

B6: humanized antibody huE1A9C8A7-V1 (antibody, human IgG4 S228P, kappa, V domains shown)
VH: QVQLVQSGAEVVKPGASVKISCKASGYTFSDYVMHWMRQAPGQSLEWIGVISTYHIPAVYNQKFKGKATMTVDKSTSTVYLELSSLRSEDTAVYYCAREVYGDSYYFDVWGQGTTVTVSS
VL: DIVMTQTPLSLPVTPGEPASISCRSSQSIVHSNGNTYLEWYLQKPGQSPQLLIYKVSNRFSGVPDRFSGSGSGTDFTLKISRVEAEDVGVYYCFQGSHVPYTFGGGTKVEIKR
notes: Human IgG4/kappa
Kd [12]: 1.54 nM
koff [12]: 0.000317 s⁻¹
kon [12]: 206000 M⁻¹ s⁻¹

B9: humanized antibody huE1A9C8A7-V4 (antibody, human IgG4 S228P, kappa, V domains shown)
VH: B6 VH with K74T
VL: B6 VL
notes: Human IgG4/kappa
Kd [12]: 1.49 nM
koff [12]: 0.00027 s⁻¹
kon [12]: 182000 M⁻¹ s⁻¹

B10: humanized antibody huE1A9C8A7-V11 (antibody, human IgG4 S228P, kappa, V domains shown)
VH: B6 VH with S30T, M37V, V72R, K74T
VL: B6 VL
notes: Human IgG4/kappa
Kd [12]: 1.53 nM
koff [12]: 0.000296 s⁻¹
kon [12]: 194000 M⁻¹ s⁻¹

Next, values leading:

Cell-based functional assay (EC50, nM) [1]: 7.45 nM
EC50 [2]: 0.67 nM
Kd [3]: 1.11 nM
koff [3]: 0.000645 s⁻¹
kon [3]: 580000 M⁻¹ s⁻¹
Kd [4]: 162 nM
koff [4]: 0.027 s⁻¹
kon [4]: 167000 M⁻¹ s⁻¹
EC50 [5]: 0.85 nM
EC50 [6]: 0.21 nM
Kd [7]: 1.32 nM
koff [7]: 0.000316 s⁻¹
kon [7]: 239000 M⁻¹ s⁻¹
IC50 [8]: 0.38 nM
IC50 [9]: 0.61 nM
Kd [10]: 2.18 nM
koff [10]: 0.000597 s⁻¹
kon [10]: 274000 M⁻¹ s⁻¹
IC50 [11]: 0.57 nM
B1: Chimeric E1A9C8A7 antibody (antibody, human IgG4 S228P, kappa, V domains shown)
VH: QVQLQQSGAEVVRPGVSVRISCKGSGYTFSDYVMHWMKQSHGESLEWIGVISTYHIPAVYNQKFKGKATMTVDKSSSTVYLELARLTSEDSAIYYCAREVYGDSYYFDVWGAGTTVTVSS
VL: DVLMTQIPLSLPVSLGDQVSISCRSSQSIVHSNGNTYLEWYLQKPGQSPKLLIYKVSNRFSGVPDRFSGSGSGTDFTLKISRVEAEDLGVYYCFQGSHVPYTFGGGTKLEIKR
notes: also called chimeric antibody E1A9C8A7

Kd [12]: 1.59 nM
koff [12]: 0.000385 s⁻¹
kon [12]: 242000 M⁻¹ s⁻¹
B3: humanized antibody huE1A9C8A7-V10 (antibody, human IgG4 S228P, kappa, V domains shown)
VH: B6 VH with S30T, M37V, A68V, K74T
VL: B6 VL
notes: Human IgG4/kappa

Kd [12]: 1.84 nM
koff [12]: 0.000428 s⁻¹
kon [12]: 233000 M⁻¹ s⁻¹
B4: humanized antibody huE1A9C8A7-V6 (antibody, human IgG4 S228P, kappa)
heavy: not shown
light: B2 light
notes: Human IgG4/kappa

Kd [12]: 1.63 nM
koff [12]: 0.000413 s⁻¹
kon [12]: 253000 M⁻¹ s⁻¹
B5: humanized antibody huE1A9C8A7-V9 (antibody, human IgG4 S228P, kappa, V domains shown)
VH: B6 VH with S30T, M37V, K67R, K74T
VL: B6 VL
notes: Human IgG4/kappa

Kd [12]: 1.5 nM
koff [12]: 0.000356 s⁻¹
kon [12]: 237000 M⁻¹ s⁻¹
B7: humanized antibody huE1A9C8A7-V7 (antibody, human IgG4 S228P, kappa, V domains shown)
VH: B6 VH with S30T, M37V, S44G, K74T
VL: B6 VL
notes: Human IgG4/kappa

Kd [12]: 1.49 nM
koff [12]: 0.000294 s⁻¹
kon [12]: 197000 M⁻¹ s⁻¹
B8: humanized antibody huE1A9C8A7-V2 (antibody, human IgG4 S228P, kappa, V domains shown)
VH: B6 VH with S30T
VL: B6 VL
notes: Human IgG4/kappa
